Experimental data published in patent US20110311515A1.

B1: RSV407 (VHH)
chain: EVQLVESGGGLVQAGGSLSISCAASGGSLSNYVLGWFRQAPGKEREFVAAINWRGDITIGPPNVEGRFTISRDNAKNTGYLQMNSLAPDDTAVYYCGAGTPLNPGAYIYDWSYDYWGRGTQVTVSSGGGGSGGGGSGGGGSEVQLVESGGGLVQAGGSLSISCAASGGSLSNYVLGWFRQAPGKEREFVAAINWRGDITIGPPNVEGRFTISRDNAKNTGYLQMNSLAPDDTAVYYCGAGTPLNPGAYIYDWSYDYWGRGTQVTVSSGGGGSGGGGSGGGGSEVQLVESGGGLVQAGGSLSISCAASGGSLSNYVLGWFRQAPGKEREFVAAINWRGDITIGPPNVEGRFTISRDNAKNTGYLQMNSLAPDDTAVYYCGAGTPLNPGAYIYDWSYDYWGRGTQVTVSSAAAEQKLISEEDLNGAAHHHHHH
B2: building block of RSV407 (monovalent Nanobody) (VHH)
VHH: EVQLVESGGGLVQAGGSLSISCAASGGSLSNYVLGWFRQAPGKEREFVAAINWRGDITIGPPNVEGRFTISRDNAKNTGYLQMNSLAPDDTAVYYCGAGTPLNPGAYIYDWSYDYWGRGTQVTVSS

Substrate: F protein of RSV (hRSV strain Long LM-2) (hRSV strain Long) (UniProt P12568)
Assay: cell-based or functional assay

F protein of RSV (hRSV strain Long LM-2) (hRSV strain Long), sequence (P12568 26-574): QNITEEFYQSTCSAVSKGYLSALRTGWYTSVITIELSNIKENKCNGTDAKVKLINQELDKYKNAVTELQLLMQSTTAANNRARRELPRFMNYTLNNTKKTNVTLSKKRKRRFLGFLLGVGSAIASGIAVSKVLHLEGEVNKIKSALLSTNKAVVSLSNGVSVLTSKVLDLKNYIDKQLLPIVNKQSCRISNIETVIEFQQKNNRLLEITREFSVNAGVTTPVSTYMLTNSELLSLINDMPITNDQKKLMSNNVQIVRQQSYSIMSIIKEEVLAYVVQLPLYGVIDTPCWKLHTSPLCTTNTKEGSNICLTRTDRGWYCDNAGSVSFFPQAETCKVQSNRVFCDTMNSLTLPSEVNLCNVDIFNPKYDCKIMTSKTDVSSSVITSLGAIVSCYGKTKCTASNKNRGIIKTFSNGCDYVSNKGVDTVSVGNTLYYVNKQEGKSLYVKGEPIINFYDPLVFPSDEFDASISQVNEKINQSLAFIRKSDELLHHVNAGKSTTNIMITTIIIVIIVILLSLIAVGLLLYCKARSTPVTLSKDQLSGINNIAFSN

Row | Binder | IC50, neutralization of RSV infection, Long strain [nM]
1 | B1 | 0.1
2 | B2 | 50 to 100
